Experimental data taken from article PMC5434536, “ING3 promotes prostate cancer growth by activating the androgen receptor” (BMC Medicine, 2017).

Target: T1, HA-tagged TIP60 (pCIN4-FLAG-HA-TIP60) (UniProt Q92993 1-513)
T1 construct: TIP60 from the plasmid pCIN4-FLAG-HA-TIP60 (gift from Dr. Wei Gu)
Assay: co-IP; cells co-transfected with AR, TIP60 and increasing amounts of ING3 plasmid + 10 nM MB for 24 h; AR or TIP60 immunoprecipitated with anti-AR or HA-affinity beads
Settings: partners not purified

T1 sequence (Q92993 whole entry): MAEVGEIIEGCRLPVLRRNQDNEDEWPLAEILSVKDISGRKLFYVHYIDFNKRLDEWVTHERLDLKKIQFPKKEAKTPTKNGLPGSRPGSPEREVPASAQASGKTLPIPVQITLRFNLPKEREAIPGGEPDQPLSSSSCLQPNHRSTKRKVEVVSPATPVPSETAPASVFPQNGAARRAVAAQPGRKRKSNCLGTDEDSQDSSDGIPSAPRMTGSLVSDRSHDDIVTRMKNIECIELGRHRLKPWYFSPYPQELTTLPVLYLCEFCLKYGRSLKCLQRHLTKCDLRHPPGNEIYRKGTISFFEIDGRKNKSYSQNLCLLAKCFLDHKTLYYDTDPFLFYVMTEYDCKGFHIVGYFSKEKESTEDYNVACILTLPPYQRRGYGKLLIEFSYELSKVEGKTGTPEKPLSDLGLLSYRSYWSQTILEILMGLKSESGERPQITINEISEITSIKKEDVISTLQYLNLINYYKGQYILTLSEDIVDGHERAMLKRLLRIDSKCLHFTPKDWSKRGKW

- fold increase of the AR-TIP60 association (ratio AR:HA-TIP60) with co-transfected ING3 against without: ~8 fold
B1: Myc-tagged androgen receptor (pCMV-3myc-AR) (receptor, UniProt P10275 1-920, looked up)
chain: MEVQLGLGRVYPRPPSKTYRGAFQNLFQSVREVIQNPGPRHPEAASAAPPGASLLLLQQQQQQQQQQQQQQQQQQQQQQQETSPRQQQQQQGEDGSPQAHRRGPTGYLVLDEEQQPSQPQSALECHPERGCVPEPGAAVAASKGLPQQLPAPPDEDDSAAPSTLSLLGPTFPGLSSCSADLKDILSEASTMQLLQQQQQEAVSEGSSSGRAREASGAPTSSKDNYLGGTSTISDNAKELCKAVSVSMGLGVEALEHLSPGEQLRGDCMYAPLLGVPPAVRPTPCAPLAECKGSLLDDSAGKSTEDTAEYSPFKGGYTKGLEGESLGCSGSAAAGSSGTLELPSTLSLYKSGALDEAAAYQSRDYYNFPLALAGPPPPPPPPHPHARIKLENPLDYGSAWAAAAAQCRYGDLASLHGAGAAGPGSGSPSAAASSSWHTLFTAEEGQLYGPCGGGGGGGGGGGGGGGGGGGGGGGEAGAVAPYGYTRPPQGLAGQESDFTAPDVWYPGGMVSRVPYPSPTCVKSEMGPWMDSYSGPYGDMRLETARDHVLPIDYYFPPQKTCLICGDEASGCHYGALTCGSCKVFFKRAAEGKQKYLCASRNDCTIDKFRRKNCPSCRLRKCYEAGMTLGARKLKKLGNLKLQEEGEASSTTSPTEETTQKLTVSHIEGYECQPIFLNVLEAIEPGVVCAGHDNNQPDSFAALLSSLNELGERQLVHVVKWAKALPGFRNLHVDDQMAVIQYSWMGLMVFAMGWRSFTNVNSRMLYFAPDLVFNEYRMHKSRMYSQCVRMRHLSQEFGWLQITPQEFLCMKALLLFSIIPVDGLKNQKFFDELRMNYIKELDRIIACKRKNPTSCSRRFYQLTKLLDSVQPIARELHQFTFDLLIKSHMVSVDFPEMMAEIISVQVPKILSGKVKPIYFHTQ
notes: androgen receptor from the plasmid pCMV-3myc-AR (gift from Dr. Marja Nevalainen); pCMV-3myc-AR is the only full-length AR plasmid named; also called AR-Myc; Myc-tagged AR; source: HEK293T, transfected, in lysate
